Measured values from paper doi:10.1101/2021.08.19.456998 (2021).
Where no end group is shown, it is not given here. The star is where a group is joined. Biotin = O=C1N[C@H]2[C@H](CS[C@H]2CCCCC(=O)*)N1

B1: 18-mer RFQV peptide derived from WNK4 (SEEGKPQLVGRFQVTSSK), unbiotinylated (peptide)
peptide: SEEGKPQLVGRFQVTSSK
B2: Biotin-C6-SEEGKPQLVGRFQVTSSK (N-terminally biotinylated 18-mer RFQV peptide derived from WNK4) (peptide)
peptide: {Biotin-C6}-SEEGKPQLVGRFQVTSSK

Tests used:
[1] = target: T1, biotin-SPAK (uncleaved human SPAK CCT domain, residues 441-545, biotinylated on the AviTag) (human, biotin on the lysine of the AviTag (…)); assay: waveRAPID
[2] = target: T2, biotin-OSR (uncleaved human OSR1 CCT domain, residues 423-527, biotinylated on the AviTag) (human, biotin on the lysine of the AviTag (…)); assay: waveRAPID
T2 sequence (chain, as listed by the source): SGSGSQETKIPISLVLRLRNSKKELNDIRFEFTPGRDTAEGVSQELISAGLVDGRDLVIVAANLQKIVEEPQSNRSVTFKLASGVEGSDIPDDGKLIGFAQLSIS

[3] = target: T1, biotin-SPAK (uncleaved human SPAK CCT …); assay: multicycle kinetics
[4] = target: T2, biotin-OSR (uncleaved human OSR1 CCT …); assay: multicycle kinetics
[5] = target: T3, cleaved SPAK (human SPAK CCT domain, residues 441-545, tags removed with TEV protease) (human); assay: waveRAPID, heterogeneous ligand model, second site
[6] = target: T4, cleaved OSR1 (human OSR1 CCT domain, residues 423-527, tags removed with TEV protease) (human); assay: waveRAPID, 1:1 model
T4 sequence (chain, as listed by the source): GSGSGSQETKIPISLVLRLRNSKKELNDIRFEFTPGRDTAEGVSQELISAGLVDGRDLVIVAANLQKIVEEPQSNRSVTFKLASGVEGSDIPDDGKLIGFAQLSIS

[7] = target: T3, cleaved SPAK (human SPAK CCT domain, …); assay: waveRAPID, heterogeneous ligand model, second site; remark: listed apart in the source
[8] = target: T4, cleaved OSR1 (human OSR1 CCT domain, …); assay: multicycle kinetics, 1:1 model
[9] = target: T3, cleaved SPAK (human SPAK CCT domain, …); assay: waveRAPID, heterogeneous ligand model, site 1

Row | Binder | koff [1] [s⁻¹] | koff [2] [s⁻¹] | koff [3] [s⁻¹] | koff [4] [s⁻¹] | Kd [5] [nM] | koff [6] [s⁻¹] | koff [7] [s⁻¹] | koff [8] [s⁻¹] | koff [9] [s⁻¹]
1 | B1 | 0.614 | 0.56 | 0.327 | 0.68 |  |  |  |  | 
2 | B2 |  |  |  |  | 4.25 | 0.662 | 6.98e-05 | 1.13 | 0.584
